Source: patent US20180127483A1 (CHILDREN S MEDICAL CENTER, published 2018)

Molecular target: T1, recombinant human Flt-1/Fc chimera (R&D System 321-FL) (human, UniProt P17948 27-758)
T1 construct: extracellular domain; Bought from R&D Systems; also called VEGF-R1 extracellular domain Ig fusion; full-length VEGF-Receptor 1 extracellular domain; Fc part of the bought chimera not given
Assay: solution equilibrium: 10 pM human VEGF165 incubated overnight with 0.05-1000 pM binder, unbound VEGF165 measured by ELISA, curve fit
Experimental: FIG. 4. Binding affinity analysis of VEGF-binding proteins. In brief, a fixed concentration of human VEGF₁₆₅ (10 pM) was incubated overnight at room temperature with varying concentrations (0.05 pM to 1000 pM) of VEGF binding proteins. 20 hours later, concentration of unbound VEGF₁₆₅ was measured by ELISA. Binding curves were fitted using Prizm software.

T1 sequence (P17948 27-758, change not shown): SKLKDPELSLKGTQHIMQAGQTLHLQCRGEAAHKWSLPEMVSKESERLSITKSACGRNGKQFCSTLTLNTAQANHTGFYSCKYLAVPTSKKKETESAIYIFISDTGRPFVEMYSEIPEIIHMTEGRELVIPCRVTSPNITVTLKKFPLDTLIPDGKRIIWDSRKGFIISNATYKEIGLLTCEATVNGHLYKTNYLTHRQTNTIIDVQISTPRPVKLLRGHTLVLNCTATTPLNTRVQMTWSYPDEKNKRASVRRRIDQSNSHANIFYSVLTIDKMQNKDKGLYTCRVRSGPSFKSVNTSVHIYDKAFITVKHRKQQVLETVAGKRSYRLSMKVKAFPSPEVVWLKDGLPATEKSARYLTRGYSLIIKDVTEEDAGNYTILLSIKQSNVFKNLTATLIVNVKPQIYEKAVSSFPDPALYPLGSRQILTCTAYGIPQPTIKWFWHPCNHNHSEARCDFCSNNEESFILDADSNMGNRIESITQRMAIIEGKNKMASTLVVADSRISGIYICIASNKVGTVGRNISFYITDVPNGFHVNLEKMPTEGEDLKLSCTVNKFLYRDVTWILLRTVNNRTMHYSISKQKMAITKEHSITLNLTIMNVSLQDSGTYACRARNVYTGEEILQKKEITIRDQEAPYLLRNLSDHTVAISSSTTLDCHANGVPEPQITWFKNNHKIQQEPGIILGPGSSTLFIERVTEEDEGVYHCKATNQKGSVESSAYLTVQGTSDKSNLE

B1: human VEGF165 (ligand, UniProt P15692-4 27-191, looked up)
chain: APMAEGGGQNHHEVVKFMDVYQRSYCHPIETLVDIFQEYPDEIEYIFKPSCVPLMRCGGCCNDEGLECVPTEESNITMQIMRIKPHQGQHIGEMSFLQHNKCECRPKKDRARQENPCGPCSERRKHLFVQDPQTCKCSCKNTDSRCKARQLELNERTCRCDKPRR
  Kd: 0.0259 nM
